From US20230220115A1
Where “and” joins values, the source holds several entries; their conditions need not be identical. Equal entries are not always repeated.

Columns and labels:
[1] = target: SARS-CoV-2 spike, N439K variant (pseudovirus RVP-703) (SARS-CoV-2) (UniProt P0DTC2); experiment: cell-based or functional assay
[2] = target: SARS-CoV-2 spike, South African Δ3 B.1.351 variant (pseudovirus RVP-724) (SARS-CoV-2) (UniProt P0DTC2); experiment: cell-based or functional assay

Imdevimab (biosimilar version) (antibody)
EC50 (pM) Neutralization, N439K [1]: 2260 pM and 2220 pM | potency in pseudovirus neutralization against REGN10933 [1]: 1000 fold | EC50 (pM) Neutralization, South Africa B.1.351 [2]: 2.48 pM and 2.37 pM
